The data set in a line: melting temperature; melt of duplexes. The settings on record: sodium 0.0675 M; strand 1 µM.
Usually Tm stands for the temperature at which the thermal transition is half complete. Turning to “CGACGTGCCAGATGTGCTG+CAGCACATGGGGCACGTCG (((((((((..((((((((+))))))))..)))))))))”, the Tm was 56.3 °C.

On to “CGACGTGCCGCATGTGCTG+CAGCACATCTGGCACGTCG (((((((((..((((((((+))))))))..)))))))))”, for which the Tm is 54.2 °C. In the case of “CGACGTGCTGGATGTGCTG+CAGCACATATGGCACGTCG ((((((((...((((((((+))))))))...))))))))”, the Tm came to 52.7 °C.

Regarding “CGACGTGCATGATGTGCTG+CAGCACATTTAGCACGTCG ((((((((...((((((((+))))))))...))))))))”, the Tm was determined as 49.8 °C.

“CGACGTGCTGTATGTGCTG+CAGCACATTTAGCACGTCG (((((((((..((((((((+))))))))..)))))))))”: the Tm amounted to 51.5 °C. As to “CGACGTGCTCAATGTGCTG+CAGCACATGGGGCACGTCG ((((((((.(.((((((((+)))))))).).))))))))”, the midpoint of thermal melting (Tm) came out at 55 °C. As to “CGACGTGCGTCATGTGCTG+CAGCACATCGAGCACGTCG ((((((((...((((((((+))))))))...))))))))”, the Tm turned out to be 52.3 °C.

Turning to “CGACGTGCAGAATGTGCTG+CAGCACATGCCGCACGTCG ((((((((.(.((((((((+)))))))).).))))))))”, the Tm came to 54.6 °C. Take “CGACGTGCCTCATGTGCTG+CAGCACATTTAGCACGTCG ((((((((...((((((((+))))))))...))))))))”: the midpoint of thermal melting (Tm) came to 47.5 °C. For “CGACGTGCTTGATGTGCTG+CAGCACATACCGCACGTCG ((((((((...((((((((+))))))))...))))))))” the value was 48.4 °C; for “CGACGTGCACCATGTGCTG+CAGCACATCGAGCACGTCG ((((((((.(.((((((((+)))))))).).))))))))”, 45.7 °C. With “CGACGTGCCTCATGTGCTG+CAGCACATCTAGCACGTCG ((((((((...((((((((+))))))))...))))))))”, the Tm came out at 47.8 °C.

Take “CGACGTGCGCGATGTGCTG+CAGCACATCGCGCACGTCG (((((((((((((((((((+)))))))))))))))))))”: the Tm came to 69.3 °C.

As to “CGACGTGCGTCATGTGCTG+CAGCACATGAGGCACGTCG ((((((((.((((((((((+)))))))))).))))))))”, the Tm was 60.7 °C. Then “CGACGTGCAATATGTGCTG+CAGCACATTCTGCACGTCG (((((((((..((((((((+))))))))..)))))))))”, with 50.7 °C. With “CGACGTGCCCAATGTGCTG+CAGCACATTCTGCACGTCG ((((((((..(((((((((+)))))))))..))))))))”, the Tm came out at 49.9 °C. In the case of “CGACGTGCCGAATGTGCTG+CAGCACATCAGGCACGTCG (((((((((..((((((((+))))))))..)))))))))”, the Tm was 55.4 °C. With “CGACGTGCGGAATGTGCTG+CAGCACATCAAGCACGTCG ((((((((...((((((((+))))))))...))))))))”, the midpoint of thermal melting (Tm) was 53.8 °C. On to “CGACGTGCCCCATGTGCTG+CAGCACATTGAGCACGTCG ((((((((.(.((((((((+)))))))).).))))))))”, for which the Tm amounted to 50.1 °C. Take “CGACGTGCGCTATGTGCTG+CAGCACATTACGCACGTCG (((((((((..((((((((+))))))))..)))))))))”: the Tm worked out at 53.4 °C.

“CGACGTGCACCATGTGCTG+CAGCACATGCTGCACGTCG (((((((((.(((((((((+))))))))).)))))))))”: the Tm amounted to 51.6 °C. For the substance “CGACGTGCGCCATGTGCTG+CAGCACATAAGGCACGTCG ((((((((...((((((((+))))))))...))))))))”, the Tm stood at 48.6 °C. Regarding “CGACGTGCCAGATGTGCTG+CAGCACATCTCGCACGTCG ((((((((.((((((((((+)))))))))).))))))))”, the Tm came out at 55.9 °C. For “CGACGTGCTCCATGTGCTG+CAGCACATGGGGCACGTCG ((((((((.((((((((((+)))))))))).))))))))” the value was 61.9 °C; for “CGACGTGCTGCATGTGCTG+CAGCACATATCGCACGTCG ((((((((...((((((((+))))))))...))))))))”, 48.3 °C; for “CGACGTGCTGGATGTGCTG+CAGCACATTAAGCACGTCG (((((((((..((((((((+))))))))..)))))))))”, 54.8 °C. As to “CGACGTGCACTATGTGCTG+CAGCACATTCCGCACGTCG ((((((((...((((((((+))))))))...))))))))”, the Tm came to 42.2 °C. Then “CGACGTGCTTAATGTGCTG+CAGCACATTTAGCACGTCG (((((((((.(((((((((+))))))))).)))))))))”, with 55.5 °C; and “CGACGTGCATTATGTGCTG+CAGCACATCCCGCACGTCG ((((((((...((((((((+))))))))...))))))))”, with 46.1 °C; and “CGACGTGCGTAATGTGCTG+CAGCACATTCGGCACGTCG ((((((((..(((((((((+)))))))))..))))))))”, with 53.1 °C. Turning to “CGACGTGCTTAATGTGCTG+CAGCACATCTGGCACGTCG ((((((((...((((((((+))))))))...))))))))”, the Tm was 49.7 °C. Consider “CGACGTGCGTCATGTGCTG+CAGCACATCTAGCACGTCG ((((((((...((((((((+))))))))...))))))))”, for which the Tm worked out at 51.5 °C. For “CGACGTGCATTATGTGCTG+CAGCACATTACGCACGTCG ((((((((.(.((((((((+)))))))).).))))))))”, the Tm was determined as 49.3 °C.

Regarding “CGACGTGCAGTATGTGCTG+CAGCACATTTCGCACGTCG ((((((((...((((((((+))))))))...))))))))”, the Tm came out at 49.7 °C.

Take “CGACGTGCCAAATGTGCTG+CAGCACATGGAGCACGTCG ((((((((...((((((((+))))))))...))))))))”: the Tm amounted to 52.4 °C.

Regarding “CGACGTGCCTTATGTGCTG+CAGCACATATCGCACGTCG ((((((((..(((((((((+)))))))))..))))))))”, the melting temperature (Tm) turned out to be 49.9 °C.

For the substance “CGACGTGCGGTATGTGCTG+CAGCACATAAAGCACGTCG ((((((((..(((((((((+)))))))))..))))))))”, the Tm was found to be 56.9 °C. Then “CGACGTGCCCTATGTGCTG+CAGCACATACGGCACGTCG (((((((((.(((((((((+))))))))).)))))))))”, with 53.5 °C; and “CGACGTGCCCGATGTGCTG+CAGCACATACCGCACGTCG ((((((((...((((((((+))))))))...))))))))”, with 47.7 °C; and “CGACGTGCTTCATGTGCTG+CAGCACATGTGGCACGTCG ((((((((..(((((((((+)))))))))..))))))))”, with 54.8 °C.

In the case of “CGACGTGCACCATGTGCTG+CAGCACATGGTGCACGTCG (((((((((((((((((((+)))))))))))))))))))”, the midpoint of thermal melting (Tm) was 65.2 °C. Regarding “CGACGTGCGAAATGTGCTG+CAGCACATCGTGCACGTCG ((((((((...((((((((+))))))))...))))))))”, the Tm was 44.7 °C. For the substance “CGACGTGCTATATGTGCTG+CAGCACATCCGGCACGTCG ((((((((...((((((((+))))))))...))))))))”, the Tm is 49 °C. As to “CGACGTGCGACATGTGCTG+CAGCACATGGAGCACGTCG ((((((((..(((((((((+)))))))))..))))))))”, the Tm turned out to be 63.5 °C.

As for “CGACGTGCGCCATGTGCTG+CAGCACATTGCGCACGTCG ((((((((((.((((((((+)))))))).))))))))))”, the Tm worked out at 59.3 °C.

Regarding “CGACGTGCAATATGTGCTG+CAGCACATACAGCACGTCG ((((((((..(((((((((+)))))))))..))))))))”, the Tm was determined as 50.3 °C. For “CGACGTGCCGGATGTGCTG+CAGCACATCTAGCACGTCG ((((((((..(((((((((+)))))))))..))))))))” the value was 55 °C; for “CGACGTGCGTCATGTGCTG+CAGCACATAGCGCACGTCG (((((((((..((((((((+))))))))..)))))))))”, 55.1 °C; for “CGACGTGCGCGATGTGCTG+CAGCACATCGAGCACGTCG ((((((((.((((((((((+)))))))))).))))))))”, 63.1 °C. “CGACGTGCATAATGTGCTG+CAGCACATGGGGCACGTCG ((((((((...((((((((+))))))))...))))))))”: the Tm was 51.2 °C. For “CGACGTGCTTCATGTGCTG+CAGCACATACTGCACGTCG ((((((((...((((((((+))))))))...))))))))”, the Tm amounted to 48.3 °C. Regarding “CGACGTGCTAAATGTGCTG+CAGCACATCCCGCACGTCG ((((((((...((((((((+))))))))...))))))))”, the Tm worked out at 48.9 °C. Regarding “CGACGTGCGCCATGTGCTG+CAGCACATCGTGCACGTCG ((((((((.(.((((((((+)))))))).).))))))))”, the Tm is 47.7 °C.

As to “CGACGTGCAAGATGTGCTG+CAGCACATTGTGCACGTCG (((((((((..((((((((+))))))))..)))))))))”, the Tm came out at 50.6 °C. For the substance “CGACGTGCGTTATGTGCTG+CAGCACATAAGGCACGTCG ((((((((.((((((((((+)))))))))).))))))))”, the Tm was 56.5 °C.

For the substance “CGACGTGCTGAATGTGCTG+CAGCACATCCAGCACGTCG ((((((((((.((((((((+)))))))).))))))))))”, the Tm was 57.6 °C.

“CGACGTGCTACATGTGCTG+CAGCACATGTAGCACGTCG (((((((((((((((((((+)))))))))))))))))))”: the Tm is 63.6 °C. For “CGACGTGCCTAATGTGCTG+CAGCACATTCTGCACGTCG ((((((((..(((((((((+)))))))))..))))))))” the value was 51 °C; for “CGACGTGCTGGATGTGCTG+CAGCACATGGCGCACGTCG ((((((((...((((((((+))))))))...))))))))”, 49.6 °C; for “CGACGTGCCTCATGTGCTG+CAGCACATTAGGCACGTCG ((((((((((.((((((((+)))))))).))))))))))”, 56.3 °C.

On to “CGACGTGCGTCATGTGCTG+CAGCACATCCAGCACGTCG ((((((((...((((((((+))))))))...))))))))”, for which the Tm was 50.7 °C. Regarding “CGACGTGCGAAATGTGCTG+CAGCACATCAAGCACGTCG ((((((((...((((((((+))))))))...))))))))”, the Tm stood at 52.3 °C. Then “CGACGTGCGTGATGTGCTG+CAGCACATCTCGCACGTCG (((((((((.(((((((((+))))))))).)))))))))”, with 61.3 °C; and “CGACGTGCCAAATGTGCTG+CAGCACATAACGCACGTCG ((((((((...((((((((+))))))))...))))))))”, with 47.7 °C. Then “CGACGTGCGCGATGTGCTG+CAGCACATTTCGCACGTCG (((((((((..((((((((+))))))))..)))))))))”, with 53.5 °C. “CGACGTGCTGCATGTGCTG+CAGCACATCGCGCACGTCG ((((((((...((((((((+))))))))...))))))))”: the Tm is 52.6 °C.

Values taken from the array DNA melting data of Ke et al..
